Literature values in PMC5481609.

Biological target: IL-23 p19 (Homo sapiens) (UniProt Q9NPF7)
Sequence (Q9NPF7 20-189, chain 1 of 2): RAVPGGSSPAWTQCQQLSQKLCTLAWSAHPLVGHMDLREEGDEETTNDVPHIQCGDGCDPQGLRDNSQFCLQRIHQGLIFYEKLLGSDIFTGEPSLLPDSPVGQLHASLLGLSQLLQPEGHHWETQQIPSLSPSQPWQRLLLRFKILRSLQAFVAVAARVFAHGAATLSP
Sequence (P29460 23-328, chain 2 of 2, further chain): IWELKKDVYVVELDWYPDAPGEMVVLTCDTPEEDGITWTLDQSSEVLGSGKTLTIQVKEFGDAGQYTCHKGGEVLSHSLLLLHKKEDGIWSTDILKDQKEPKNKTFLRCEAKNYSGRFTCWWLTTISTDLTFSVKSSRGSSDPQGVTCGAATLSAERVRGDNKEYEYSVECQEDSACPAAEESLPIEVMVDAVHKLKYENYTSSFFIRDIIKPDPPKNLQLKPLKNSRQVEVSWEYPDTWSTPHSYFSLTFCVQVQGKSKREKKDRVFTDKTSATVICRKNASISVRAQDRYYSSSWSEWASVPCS

- Kd: 0.138 nM
Substance: brazikumab
